Test results as given in patent US20070015155A1 (published 2007).

Biological target: T1, GST protein (UniProt P08515 1-218 = GST)
T1 construct: Control protein of the GST pull-down, on glutathione beads; also called protein consisting of the GST part alone; product of pGEX-6P-1
Test: GST pull-down with 35S-labeled in vitro translated protein, SDS-PAGE, autoradiography
Experimental: Using the protein GST-Cbl prepared above in (2), the presence or absence of the direct interaction of human and mouse CbAP40 proteins with the c-Cbl protein was confirmed by the GST-pull down method (Zikken Kougaku, Vol. 13, No. 6, 1994, p. 528, Matsushime, et al.). Using 0.5 μg of pcDNA-CbAP40 prepared above in Example 1(4) or pcDNA-mCbAP40 prepared above in Example 8(2) as a template, and additionally using 40 μl of TNT kit (TNT^R Quick Coupled Transcription/Translation System; Promega) and 1.3 MBq of a radioisotope (redivue Pro-mix L-[³⁵S]; Amersham) according to the attached protocol, human or mouse CbAP40 protein radioactively labeled was prepared by in vitro transcription and translation. Then, 15 μl each of the prepared solution of human or mouse CbAP40 protein was mixed with 1 μl of the GST protein or GST-Cbl purified on glutathione beads as described above in (2) to which 0.3 ml of Buffer A (50 mM Tris-HCl, pH 7.5, 10% glycerol, 120 mM NaCl, 1 mM EDTA, 0.1 mM EGTA, 0.5 mM PMSF, 0.5% NP-40) was added. The resulting mixture was shaken at 4° C. for one hour. Subsequently, the protein binding to the GST protein or GST-Cbl on the bead was co-precipitated by centrifugation. […] Consequently, a band never detected in mixing the GST protein was detected in case of mixing GST-Cbl.

T1 sequence (P08515 whole entry): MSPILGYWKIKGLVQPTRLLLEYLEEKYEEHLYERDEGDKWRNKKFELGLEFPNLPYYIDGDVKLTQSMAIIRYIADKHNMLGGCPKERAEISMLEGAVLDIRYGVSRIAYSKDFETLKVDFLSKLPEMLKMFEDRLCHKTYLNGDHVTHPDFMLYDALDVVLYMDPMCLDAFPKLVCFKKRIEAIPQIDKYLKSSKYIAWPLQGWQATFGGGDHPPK

B1: human CbAP40-V5-His6 fusion protein (other, not shown: small tags and cut ends)
chain: MMSSSWPGTSPRLSRGSGSCLTSGATGPCQADSSLKAGPGAGVFFLSSAEGEQISFLFDCIVRGISPTKGPFGLRPVLPDPSPPGPSTVEERVAQEALETLQLEKRLSLLSHAGRPGSGGDDRSLSSSSSEASHLDVSASSRLTAWPEQSSSSASTSQEGPRPAAAQAAGEAMVGASRPPPKPLRPRQLQEVGRQSSSDSGIATGSHSSYSSSLSSYAGSSLDVWRATDELGSLLSLPAAGAPEPSLCTCLPGTVEYQVPTSLRAHYDTPRSLCLAPRDHSPPSQGSPGNSAARDSGGQTSAGCPSGWLGTRRRGLVMEAPQGSEATLPGPAPGEPWEAGGPHAGPPPAFFSACPVCGGLKVNPPP
modifications: radioactively labeled by in vitro transcription and translation with redivue Pro-mix L-[35S]
notes: Made by in vitro transcription/translation (TNT kit) from pcDNA-CbAP40; 411 amino acids in total with the 45-residue C-terminal tag. 'mature' stands here for the full-length protein (no signal peptide is mentioned); also called human CbAP40 protein; Cbl associated protein 40
  binding result: no binding
